{"source": "paper PMC3813734", "about": "“Biochemical Characterization of a First Fungal Esterase from Rhizomucor miehei Showing High Efficiency of Ester Synthesis” (PLoS ONE, 2013)", "proteins": {"B1": {"name": "RmEstA (Rhizomucor miehei) (protein)", "chain": "MTVGNPPIHPVYAAAFAAMKERPPIHTLDLKVVRESSEARQLAANIKLPEVIEEDKVVESDGKTLKLTIVRPPGTEDQILPVLIFLHGGGFVFGSKYTHIKPVRDLTVKANVVTVFVDYSLSPEAKFPTAIEEIYAAILWVRENASSLNINAEALAVAGDSAGATLSAAVSIYAKEKGLSAAIKTQVLIYPATAVSHAKYESYKLFGNGDYILSAEDLKFFSNAYLPAPASELNDKLATLELATKADLEGLPPALLFTAESDVLRDEGEKYAQQLAEAGVDVAAVRVLGAVHGFITVPVETPQYRFTINTIVAHLRDIYAKYNA", "notes": "full-length ORF, 324 residues, no signal peptide predicted; C-terminal His tag (pET-30a(+), NdeI/XhoI); E. coli BL21(DE3); Ni-IDA; 34,989 Da calculated, 34 kDa SDS-PAGE"}}, "assay_in_all_cases": "purified protein", "format_in_all_cases": "biochemical, Rhizomucor miehei", "conditions_in_all_cases": "50 mM sodium phosphate pH 6.5, 45 °C, 5 min", "key": {"purified protein [1]": {"substrate": "CCCCCCCCCCCC(=O)Oc1ccc([N+](=O)[O-])cc1"}, "purified protein [2]": {"substrate": "CCCCCCCCCC(=O)Oc1ccc([N+](=O)[O-])cc1"}, "purified protein [3]": {"substrate": "CCCCCC(=O)Oc1ccc([N+](=O)[O-])cc1"}, "purified protein [4]": {"substrate": "CCCC(=O)Oc1ccc([N+](=O)[O-])cc1"}, "purified protein [5]": {"substrate": "CC(=O)Oc1ccc([N+](=O)[O-])cc1"}, "purified protein [6]": {"substrate": "CCCCCCCC(=O)Oc1ccc([N+](=O)[O-])cc1"}}, "data": [{"protein": "B1", "values": [{"measurement": "Km", "setting": "purified protein [1]", "result": 300, "unit": "µM"}, {"measurement": "kcat/Km", "setting": "purified protein [1]", "result": 60, "unit": "M⁻¹ s⁻¹"}, {"measurement": "Km", "setting": "purified protein [2]", "result": 280, "unit": "µM"}, {"measurement": "kcat/Km", "setting": "purified protein [2]", "result": 130, "unit": "M⁻¹ s⁻¹"}, {"measurement": "Km", "setting": "purified protein [3]", "result": 120, "unit": "µM"}, {"measurement": "kcat/Km", "setting": "purified protein [3]", "result": 8970, "unit": "M⁻¹ s⁻¹"}, {"measurement": "Km", "setting": "purified protein [4]", "result": 170, "unit": "µM"}, {"measurement": "kcat/Km", "setting": "purified protein [4]", "result": 6900, "unit": "M⁻¹ s⁻¹"}, {"measurement": "Km", "setting": "purified protein [5]", "result": 1000, "unit": "µM"}, {"measurement": "kcat/Km", "setting": "purified protein [5]", "result": 370, "unit": "M⁻¹ s⁻¹"}, {"measurement": "Km", "setting": "purified protein [6]", "result": 820, "unit": "µM"}, {"measurement": "kcat/Km", "setting": "purified protein [6]", "result": 510, "unit": "M⁻¹ s⁻¹"}]}]}
